Assay results taken from patent US20230295310A1 (ABCELLERA BIOLOGICS, published 2023).

The binders below were run against EGFR on HeLa cells (UniProt P00533 25-1210, limits assumed) (assay: cell-based or functional assay).

X… HeLa EC50 [nM]	Binder	Max killing % [%]
–	GOMP001_bsAb_023 (bispecific antibody, human IgG1, kappa, L234A L235A) heavy 1: QVQLVQSGAEVKKPGASVKVSCKASGYTFTSHWMHWVRKAPGQGLEWIGEFNPSNGRTNYNEEFKSKATMTVDTSTNTAYMELSSLRSEDTAVYYCASRDYDYDGRYFDYWGQGTLVTVSSASTKGPSVFPLAPSSKSTSGGTAALGCLVADYFPEPVTVSWNSGALTSGVHTFPAVLQSSGLYSLSSVVTVPSSSLGTQTYICNVNHKPSNTKVDEKVEPKSCDKTHTCPPCPAPEAAGGPSVFLFPPKPKDTLMISRTPEVTCVVVDVSHEDPEVKFNWYVDGVEVHNAKTKPREEQYNSTYRVVSVLTVLHQDWLNGKEYKCKVSNKALPAPIEKTISKAKGQPREPQVYTLPPSREEMTDNQVSLTCLVKGFYPSDIAVEWESNGQPENNYKTTPPVLMSDGSFFLASKLTVDKSRWQQGNVFSCSVMHEALHNHYTQKSLSLSPG light 1: RIQMTQSPSSLSASVGDRVTITCSASSSVTYMYWYQDKPGKAPKLLIYDTSNLASGVPSRFSGSGSGTDYTFTISSLQPEDIATYYCQQWSSHIFTFGQGTKVEIKRTVAAPSVFIFPPSDKQLKSGTARVVCLLNNFYPREAKVQWKVDNALQSGNSQESVTEQDSKDSTYSLSSTLTLSKADYEKHKVYACEVTHQGLSSPVTKSFNRGEC heavy 2: QGQLVESGGGVVQPGRSLRLSCEASGFTFRSYGMHWVRYPPGKGLEWVAIIWYDGGKKYYGDRVKGRFTISRDNPKNTLYLQMNSLRPEDTAVYYCMAYDYSNGFDIWGRGTMVTVSSASTKGPSVFPLAPSSKSTSGGTAALGCLVKDYFPEPVTVSWNSGALTSGVHTFPAVLQSSGLYSLSSVVTVPSSSLGTQTYICNVNHKPSNTKVDKKVEPKSCDKTHTCPPCPAPEAAGGPSVFLFPPKPKDTLMISRTPEVTCVVVDVSHEDPEVKFNWYVDGVEVHNAKTKPREEQYNSTYRVVSVLTVLHQDWLNGKEYKCKVSNKALPAPIEKTISKAKGQPRRPRVYTLPPSREEMTKNQVSLVCLVKGFYPSDIAVEWESNGQPENNYKTTPPVLDSDGSFFLYSVLTVDKSRWQQGNVFSCSVMHEALHNHYTQKSLSLSPG light 2: DIVMTQTPLSSPVTLGQPASISCRSSQSFVHSDGSTYLSWLQRRPGDPPRLLIYKISNRFSGVPDRFSGRGAGTDFTLKISRVEAEDVGIYYCMQNTQFPYTFGQGTKLEIKRTVAAPSVFIFPPSDEQLKSGTASVVCLLNNFYPREAKVQWKVDNALQSGNSQESVTEQDSKDSTYSLSSTLTLSKADYEKHKVYACEVTHQGLSSPVTKSFNRGEC	27.5
0.0454	GOMP001_bsAb_030 (bispecific antibody, human IgG1, kappa, L234A L235A) heavy 1: QVQLVQSGAEVKKPGASVKVSCKASGYTVTGYYMHWVRKAPGQGLEWMGWINPNSGGTNFAQEFQGRVTMTRDTSISTFYMDLNRLRSDDTAVYYCARGGAPVSYWFFDLWGRGTLVTVSSASTKGPSVFPLAPSSKSTSGGTAALGCLVADYFPEPVTVSWNSGALTSGVHTFPAVLQSSGLYSLSSVVTVPSSSLGTQTYICNVNHKPSNTKVDEKVEPKSCDKTHTCPPCPAPEAAGGPSVFLFPPKPKDTLMISRTPEVTCVVVDVSHEDPEVKFNWYVDGVEVHNAKTKPREEQYNSTYRVVSVLTVLHQDWLNGKEYKCKVSNKALPAPIEKTISKAKGQPREPQVYTLPPSREEMTDNQVSLTCLVKGFYPSDIAVEWESNGQPENNYKTTPPVLMSDGSFFLASKLTVDKSRWQQGNVFSCSVMHEALHNHYTQKSLSLSPG light 1: RIQMTQSPSSLSASVGDRVTITCRASQSISRYLNWYQDKPGKAPKVLIYNTSSLKSGVPSRFSGSGSGTDFTLTISSLQPEDFGTFYCQQSHSTPFTFGPGTKVDIKRTVAAPSVFIFPPSDKQLKSGTARVVCLLNNFYPREAKVQWKVDNALQSGNSQESVTEQDSKDSTYSLSSTLTLSKADYEKHKVYACEVTHQGLSSPVTKSFNRGEC heavy 2: QVQLVQSGAEVKKPGASVKVSCKASGYTFTSHWMHWVRYAPGQGLEWIGEFNPSNGRTNYNEKFKSKATMTVDTSTNTAYMELSSLRSEDTAVYYCASRDYDYDGRYFDYWGRGTLVTVSSASTKGPSVFPLAPSSKSTSGGTAALGCLVKDYFPEPVTVSWNSGALTSGVHTFPAVLQSSGLYSLSSVVTVPSSSLGTQTYICNVNHKPSNTKVDKKVEPKSCDKTHTCPPCPAPEAAGGPSVFLFPPKPKDTLMISRTPEVTCVVVDVSHEDPEVKFNWYVDGVEVHNAKTKPREEQYNSTYRVVSVLTVLHQDWLNGKEYKCKVSNKALPAPIEKTISKAKGQPRRPRVYTLPPSREEMTKNQVSLVCLVKGFYPSDIAVEWESNGQPENNYKTTPPVLDSDGSFFLYSVLTVDKSRWQQGNVFSCSVMHEALHNHYTQKSLSLSPG light 2: DIQMTQSPSSLSASVGDRVTITCSASSSVTYMYWYQRKPGDAPKLLIYDTSNLASGVPSRFSGSGSGTDYTFTISSLQPEDIATYYCQQWSSHIFTFGQGTKVEIKRTVAAPSVFIFPPSDEQLKSGTASVVCLLNNFYPREAKVQWKVDNALQSGNSQESVTEQDSKDSTYSLSSTLTLSKADYEKHKVYACEVTHQGLSSPVTKSFNRGEC	92.6
0.895	GOMP001_bsAb_024 (bispecific antibody, human IgG1, kappa, L234A L235A) heavy 1: QGQLVESGGGVVQPGRSLRLSCEASGFTFRSYGMHWVRKPPGKGLEWVAIIWYDGGKKYYGDEVKGRFTISRDNPKNTLYLQMNSLRPEDTAVYYCMAYDYSNGFDIWGQGTMVTVSSASTKGPSVFPLAPSSKSTSGGTAALGCLVADYFPEPVTVSWNSGALTSGVHTFPAVLQSSGLYSLSSVVTVPSSSLGTQTYICNVNHKPSNTKVDEKVEPKSCDKTHTCPPCPAPEAAGGPSVFLFPPKPKDTLMISRTPEVTCVVVDVSHEDPEVKFNWYVDGVEVHNAKTKPREEQYNSTYRVVSVLTVLHQDWLNGKEYKCKVSNKALPAPIEKTISKAKGQPREPQVYTLPPSREEMTDNQVSLTCLVKGFYPSDIAVEWESNGQPENNYKTTPPVLMSDGSFFLASKLTVDKSRWQQGNVFSCSVMHEALHNHYTQKSLSLSPG light 1: RIVMTQTPLSSPVTLGQPASISCRSSQSFVHSDGSTYLSWLQDRPGQPPRLLIYKISNRFSGVPDRFSGRGAGTDFTLKISRVEAEDVGIYYCMQNTQFPYTFGQGTKLEIKRTVAAPSVFIFPPSDKQLKSGTARVVCLLNNFYPREAKVQWKVDNALQSGNSQESVTEQDSKDSTYSLSSTLTLSKADYEKHKVYACEVTHQGLSSPVTKSFNRGEC heavy 2: QVQLVQSGAEVKKPGASVKVSCKASGYTFTSHWMHWVRYAPGQGLEWIGEFNPSNGRTNYNEKFKSKATMTVDTSTNTAYMELSSLRSEDTAVYYCASRDYDYDGRYFDYWGRGTLVTVSSASTKGPSVFPLAPSSKSTSGGTAALGCLVKDYFPEPVTVSWNSGALTSGVHTFPAVLQSSGLYSLSSVVTVPSSSLGTQTYICNVNHKPSNTKVDKKVEPKSCDKTHTCPPCPAPEAAGGPSVFLFPPKPKDTLMISRTPEVTCVVVDVSHEDPEVKFNWYVDGVEVHNAKTKPREEQYNSTYRVVSVLTVLHQDWLNGKEYKCKVSNKALPAPIEKTISKAKGQPRRPRVYTLPPSREEMTKNQVSLVCLVKGFYPSDIAVEWESNGQPENNYKTTPPVLDSDGSFFLYSVLTVDKSRWQQGNVFSCSVMHEALHNHYTQKSLSLSPG light 2: DIQMTQSPSSLSASVGDRVTITCSASSSVTYMYWYQRKPGDAPKLLIYDTSNLASGVPSRFSGSGSGTDYTFTISSLQPEDIATYYCQQWSSHIFTFGQGTKVEIKRTVAAPSVFIFPPSDEQLKSGTASVVCLLNNFYPREAKVQWKVDNALQSGNSQESVTEQDSKDSTYSLSSTLTLSKADYEKHKVYACEVTHQGLSSPVTKSFNRGEC	72.5
0.136	GOMP001_bsAb_029 (bispecific antibody, human IgG1, kappa, L234A L235A) heavy 1: QVQLVQSGAEVKKPGASVKVSCKASGYTFTSHWMHWVRKAPGQGLEWIGEFNPSNGRTNYNEEFKSKATMTVDTSTNTAYMELSSLRSEDTAVYYCASRDYDYDGRYFDYWGQGTLVTVSSASTKGPSVFPLAPSSKSTSGGTAALGCLVADYFPEPVTVSWNSGALTSGVHTFPAVLQSSGLYSLSSVVTVPSSSLGTQTYICNVNHKPSNTKVDEKVEPKSCDKTHTCPPCPAPEAAGGPSVFLFPPKPKDTLMISRTPEVTCVVVDVSHEDPEVKFNWYVDGVEVHNAKTKPREEQYNSTYRVVSVLTVLHQDWLNGKEYKCKVSNKALPAPIEKTISKAKGQPREPQVYTLPPSREEMTDNQVSLTCLVKGFYPSDIAVEWESNGQPENNYKTTPPVLMSDGSFFLASKLTVDKSRWQQGNVFSCSVMHEALHNHYTQKSLSLSPG light 1: RIQMTQSPSSLSASVGDRVTITCSASSSVTYMYWYQDKPGKAPKLLIYDTSNLASGVPSRFSGSGSGTDYTFTISSLQPEDIATYYCQQWSSHIFTFGQGTKVEIKRTVAAPSVFIFPPSDKQLKSGTARVVCLLNNFYPREAKVQWKVDNALQSGNSQESVTEQDSKDSTYSLSSTLTLSKADYEKHKVYACEVTHQGLSSPVTKSFNRGEC heavy 2: QVQLVQSGAEVKKPGASVKVSCKASGYTVTGYYMHWVRYAPGQGLEWMGWINPNSGGTNFAQRFQGRVTMTRDTSISTFYMDLNRLRSDDTAVYYCARGGAPVSYWFFDLWGRGTLVTVSSASTKGPSVFPLAPSSKSTSGGTAALGCLVKDYFPEPVTVSWNSGALTSGVHTFPAVLQSSGLYSLSSVVTVPSSSLGTQTYICNVNHKPSNTKVDKKVEPKSCDKTHTCPPCPAPEAAGGPSVFLFPPKPKDTLMISRTPEVTCVVVDVSHEDPEVKFNWYVDGVEVHNAKTKPREEQYNSTYRVVSVLTVLHQDWLNGKEYKCKVSNKALPAPIEKTISKAKGQPRRPRVYTLPPSREEMTKNQVSLVCLVKGFYPSDIAVEWESNGQPENNYKTTPPVLDSDGSFFLYSVLTVDKSRWQQGNVFSCSVMHEALHNHYTQKSLSLSPG light 2: DIQMTQSPSSLSASVGDRVTITCRASQSISRYLNWYQRKPGDAPKVLIYNTSSLKSGVPSRFSGSGSGTDFTLTISSLQPEDFGTFYCQQSHSTPFTFGPGTKVDIKRTVAAPSVFIFPPSDEQLKSGTASVVCLLNNFYPREAKVQWKVDNALQSGNSQESVTEQDSKDSTYSLSSTLTLSKADYEKHKVYACEVTHQGLSSPVTKSFNRGEC	81.1
